Laboratory results reported in publication PMC9482650, “Quantitative fragmentomics allow affinity mapping of interactomes” (Nature Communications, 2022).

T1: PCLO, Q9Y6V0
T1 sequence (Q9Y6V0 4491-4600, limits assumed, looked up): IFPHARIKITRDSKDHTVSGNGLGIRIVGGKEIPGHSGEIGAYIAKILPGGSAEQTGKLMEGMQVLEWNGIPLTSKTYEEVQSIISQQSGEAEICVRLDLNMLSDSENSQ

T2: SNTA1, Q13424
T2 sequence (Q13424 82-180, limits assumed, looked up): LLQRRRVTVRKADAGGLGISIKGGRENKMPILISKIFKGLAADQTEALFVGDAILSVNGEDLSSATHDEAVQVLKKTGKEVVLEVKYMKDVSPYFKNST

T3: SYNJ2BP, P57105
T3 sequence (P57105 8-110, limits assumed, looked up): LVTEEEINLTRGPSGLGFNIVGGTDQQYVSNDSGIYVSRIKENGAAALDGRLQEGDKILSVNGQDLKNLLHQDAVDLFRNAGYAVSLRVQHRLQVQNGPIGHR

T4: MPP7, Q5T2T1
T4 sequence (Q5T2T1 134-230, limits assumed, looked up): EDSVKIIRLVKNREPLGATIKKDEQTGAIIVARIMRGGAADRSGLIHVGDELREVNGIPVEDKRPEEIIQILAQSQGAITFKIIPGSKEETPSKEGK

T5: PARD3B_1, Q8TEW8
T5 sequence (Q8TEW8 196-299, limits assumed, looked up): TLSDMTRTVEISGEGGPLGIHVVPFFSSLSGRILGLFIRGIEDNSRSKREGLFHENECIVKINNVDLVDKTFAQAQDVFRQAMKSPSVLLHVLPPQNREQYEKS

T6: HTRA4, P83105
T6 sequence (P83105 378-476, limits assumed, looked up): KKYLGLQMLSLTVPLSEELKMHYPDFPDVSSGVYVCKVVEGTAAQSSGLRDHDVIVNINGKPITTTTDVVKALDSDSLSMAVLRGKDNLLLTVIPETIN

T7: SNTG2, Q9NY99
T7 sequence (Q9NY99 68-166, limits assumed, looked up): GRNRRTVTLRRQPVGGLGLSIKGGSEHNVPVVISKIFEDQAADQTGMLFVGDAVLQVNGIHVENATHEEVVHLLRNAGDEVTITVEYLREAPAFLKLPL

T8: CARD11, Q9BXL7
T8 sequence (Q9BXL7 662-765, limits assumed, looked up): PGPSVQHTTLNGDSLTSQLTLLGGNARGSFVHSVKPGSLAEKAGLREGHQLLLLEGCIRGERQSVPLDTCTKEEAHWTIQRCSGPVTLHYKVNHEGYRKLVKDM

T9: HTRA3, P83110
T9 sequence (P83110 354-453, limits assumed, looked up): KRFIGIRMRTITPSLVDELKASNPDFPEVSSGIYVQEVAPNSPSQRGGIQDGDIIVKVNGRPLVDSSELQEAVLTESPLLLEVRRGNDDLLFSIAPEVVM

T10: LNX2_3, Q8N448
T10 sequence (Q8N448 463-564, limits assumed, looked up): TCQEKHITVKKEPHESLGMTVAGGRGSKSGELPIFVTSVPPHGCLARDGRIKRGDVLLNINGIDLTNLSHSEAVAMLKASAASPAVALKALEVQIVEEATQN

T11: SNTG1, Q9NSN8
T11 sequence (Q9NSN8 52-150, limits assumed, looked up): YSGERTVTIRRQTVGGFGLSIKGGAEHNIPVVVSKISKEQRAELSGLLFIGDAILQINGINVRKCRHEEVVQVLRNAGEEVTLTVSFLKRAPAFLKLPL


What was measured:
Assay in all cases: holdup assay
Set-up in all cases: key: below the threshold = too weak to quantify, mostly under pKd 3.1 to 4
Details in all cases: plain residues with an end cap or a label only (N-terminal biotin on a linker: ado-ado)
[1] = target: NHERF2_2, Q15599
NHERF2_2, Q15599, sequence (Q15599 142-238): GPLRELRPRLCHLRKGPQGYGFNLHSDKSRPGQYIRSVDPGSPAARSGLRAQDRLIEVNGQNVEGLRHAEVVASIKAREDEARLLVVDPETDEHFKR

[2] = target: T1, PCLO, Q9Y6V0
[3] = target: NHERF4_1, Q86UT5-2
NHERF4_1, Q86UT5-2, sequence (Q86UT5 other isoform, or with tags, fused parts or gaps): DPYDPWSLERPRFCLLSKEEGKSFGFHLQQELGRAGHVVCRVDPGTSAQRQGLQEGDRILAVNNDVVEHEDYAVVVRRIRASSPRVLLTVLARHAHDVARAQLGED

[4] = target: Inadl_9, Q8NI35
Inadl_9, Q8NI35, sequence (Q8NI35 1530-1615): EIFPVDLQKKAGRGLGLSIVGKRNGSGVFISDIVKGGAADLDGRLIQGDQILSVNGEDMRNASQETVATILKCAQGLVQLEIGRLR

[5] = target: AHNAK1, Q09666
AHNAK1, Q09666, sequence (Q09666 4-100): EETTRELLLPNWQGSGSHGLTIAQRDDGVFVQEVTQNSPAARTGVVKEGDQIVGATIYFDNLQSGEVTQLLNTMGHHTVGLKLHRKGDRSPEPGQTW

[6] = target: TJP1_2, Q07157
TJP1_2, Q07157, sequence (Q07157 181-274): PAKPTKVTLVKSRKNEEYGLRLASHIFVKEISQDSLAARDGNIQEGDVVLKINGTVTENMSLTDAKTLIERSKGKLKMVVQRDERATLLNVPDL

[7] = target: T2, SNTA1, Q13424
[8] = target: T3, SYNJ2BP, P57105
[9] = target: SCRIB_2, Q14160
SCRIB_2, Q14160, sequence (Q14160 857-960): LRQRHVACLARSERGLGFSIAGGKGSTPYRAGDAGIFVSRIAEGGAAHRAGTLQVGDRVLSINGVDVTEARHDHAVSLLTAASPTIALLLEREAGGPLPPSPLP

[10] = target: Inadl_4, Q8NI35
Inadl_4, Q8NI35, sequence (Q8NI35 547-651): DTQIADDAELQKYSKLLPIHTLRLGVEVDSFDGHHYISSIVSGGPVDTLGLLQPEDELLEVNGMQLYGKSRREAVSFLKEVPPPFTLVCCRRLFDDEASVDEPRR

[11] = target: T4, MPP7, Q5T2T1
[12] = target: T5, PARD3B_1, Q8TEW8
[13] = target: PARD3_3, Q8TEW0
PARD3_3, Q8TEW0, sequence (Q8TEW0 582-685): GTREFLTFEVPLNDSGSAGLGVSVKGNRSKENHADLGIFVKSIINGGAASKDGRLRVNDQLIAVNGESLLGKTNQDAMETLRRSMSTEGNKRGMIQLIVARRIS

[14] = target: MAGI2_5, Q86UL8
MAGI2_5, Q86UL8, sequence (Q86UL8 915-1017): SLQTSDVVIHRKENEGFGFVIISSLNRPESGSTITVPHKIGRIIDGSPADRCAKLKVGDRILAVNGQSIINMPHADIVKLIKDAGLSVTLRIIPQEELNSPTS

[15] = target: NOS1, P29475
NOS1, P29475, sequence (P29475 9-101): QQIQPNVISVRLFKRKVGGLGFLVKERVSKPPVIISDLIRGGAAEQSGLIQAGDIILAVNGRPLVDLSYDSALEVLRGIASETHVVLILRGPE

[16] = target: T6, HTRA4, P83105
[17] = target: ARHGEF12, Q9NZN5-2
ARHGEF12, Q9NZN5-2, sequence (Q9NZN5 other isoform, or with tags, fused parts or gaps): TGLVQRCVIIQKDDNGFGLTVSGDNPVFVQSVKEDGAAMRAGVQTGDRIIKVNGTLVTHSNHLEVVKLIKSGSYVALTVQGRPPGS

[18] = target: IL16_1, Q14005
IL16_1, Q14005, sequence (Q14005 210-306): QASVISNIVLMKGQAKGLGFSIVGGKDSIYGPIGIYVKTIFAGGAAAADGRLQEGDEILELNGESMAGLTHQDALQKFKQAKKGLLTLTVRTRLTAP

[19] = target: T7, SNTG2, Q9NY99
[20] = target: DLG2_3, Q15700
[21] = target: MAST1, Q9Y2H9
MAST1, Q9Y2H9, sequence (Q9Y2H9 962-1065): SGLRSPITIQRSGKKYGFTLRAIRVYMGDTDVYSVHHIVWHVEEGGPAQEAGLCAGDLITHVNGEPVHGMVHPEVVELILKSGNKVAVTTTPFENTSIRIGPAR

[22] = target: T8, CARD11, Q9BXL7
[23] = target: Inadl_3, Q8NI35
Inadl_3, Q8NI35, sequence (Q8NI35 359-469): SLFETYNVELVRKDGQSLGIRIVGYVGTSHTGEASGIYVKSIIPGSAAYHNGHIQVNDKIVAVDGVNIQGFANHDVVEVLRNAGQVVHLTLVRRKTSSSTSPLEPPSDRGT

[24] = target: T9, HTRA3, P83110
[25] = target: T10, LNX2_3, Q8N448
[26] = target: T11, SNTG1, Q9NSN8

Binder | pKd [1] | pKd [2] | pKd [3] | pKd [4] | pKd [5] | pKd [6] | pKd [7] | pKd [8] | pKd [9] | pKd [10] | pKd [11] | pKd [12] | pKd [13] | pKd [14] | pKd [15] | pKd [16] | pKd [17] | pKd [18] | pKd [19] | pKd [20] | further results
SGDGKTSVWI [GJC1, P36383] | 3.98 | below the threshold | 3.57 | 3.85 | below the threshold | 5 | below the threshold | below the threshold | below the threshold | below the threshold | below the threshold | 4.77 | 4.62 | below the threshold | 4.1 | 4.64 | 3.61 | below the threshold | below the threshold | 3.83 | pKd [21]: below the threshold; pKd [22]: below the threshold; pKd [23]: 3.69; pKd [24]: 5.8; pKd [25]: below the threshold; pKd [26]: 3.61
PGKKPEDSRV [SLCO2B1, O94956] | 3.47 | below the threshold | below the threshold | below the threshold | below the threshold | below the threshold | 3.97 | 4.15 | below the threshold | below the threshold | below the threshold | below the threshold | below the threshold | below the threshold | below the threshold | below the threshold | below the threshold | 3.84 | 3.83 | below the threshold | pKd [21]: below the threshold; pKd [22]: below the threshold; pKd [23]: below the threshold; pKd [24]: below the threshold; pKd [25]: below the threshold; pKd [26]: below the threshold
EPAKETTTNV [SLC2A3, P11169] | 3.69 | below the threshold | below the threshold | below the threshold | below the threshold | below the threshold | 4.09 | below the threshold | 3.68 | below the threshold | below the threshold | below the threshold | below the threshold | below the threshold | below the threshold | below the threshold | 3.87 | below the threshold | 4.03 | below the threshold | pKd [21]: 4.46; pKd [22]: below the threshold; pKd [23]: below the threshold; pKd [24]: below the threshold; pKd [25]: below the threshold; pKd [26]: 4.06
GNDPDRGTSI [GRID2, O43424] | 3.66 | below the threshold | below the threshold | below the threshold | below the threshold | below the threshold | below the threshold | 4.72 | below the threshold | below the threshold | below the threshold | below the threshold | below the threshold | below the threshold | 3.75 | below the threshold | below the threshold | below the threshold | below the threshold | 3.69 | pKd [21]: 3.94; pKd [22]: below the threshold; pKd [23]: below the threshold; pKd [24]: below the threshold; pKd [25]: below the threshold; pKd [26]: below the threshold
